Experimental data as given in the supplement of paper PMC10567573.

B1: C9orf9 (parent)
chain: TKHKCRQLTKASLKPRGCSKPPWR
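Also: lentivirally expressed fusions sorted by FACS into six bins by GFP to DsRed ratio, PSI derived from sequencing read proportions per bin multiplied by bin number.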

Variants of: B1
Test: protein stability index of a GFP-peptide fusion (GPS, HEK-293T) (PSI 1-6); higher = more stable
Settings: c terminus: a fixed tail appended
In the case of TKHKCRILTKASLKPRGCSKPPWR, the protein stability index is reported as 2.08.
TKHKCRKLTKASLKPRGCSKPPWR gave a protein stability index of 3.27.
For TKHKCRLLTKASLKPRGCSKPPWR, the protein stability index was 1.29.
In the case of TKHKCRMLTKASLKPRGCSKPPWR, the protein stability index is reported as 2.14.
In the case of TKHKCRNLTKASLKPRGCSKPPWR, the protein stability index is reported as 3.14.
Work on TKHKCRPLTKASLKPRGCSKPPWR yielded a protein stability index of 3.14.
Variant TKHKCRRLTKASLKPRGCSKPPWR has a protein stability index of 2.56.
For TKHKCRSLTKASLKPRGCSKPPWR, the protein stability index was 3.27.
With TKHKCRTLTKASLKPRGCSKPPWR the protein stability index was 2.06.
Variant TKHKCRVLTKASLKPRGCSKPPWR has a protein stability index of 1.97.
Variant TKHKCRYLTKASLKPRGCSKPPWR has a protein stability index of 2.72.
Work on TKHKCRQATKASLKPRGCSKPPWR yielded a protein stability index of 3.21.
Variant TKHKCRQCTKASLKPRGCSKPPWR has a protein stability index of 2.89.
TKHKCRQDTKASLKPRGCSKPPWR showed a protein stability index of 3.07.
TKHKCRQETKASLKPRGCSKPPWR gave a protein stability index of 3.62.
Variant TKHKCRQFTKASLKPRGCSKPPWR has a protein stability index of 3.24.
For TKHKCRQGTKASLKPRGCSKPPWR, the protein stability index was 2.58.
With TKHKCRQHTKASLKPRGCSKPPWR the protein stability index was 2.98.
With TKHKCRQITKASLKPRGCSKPPWR the protein stability index was 2.37.
Work on TKHKCRQKTKASLKPRGCSKPPWR yielded a protein stability index of 3.02.
Variant TKHKCRQMTKASLKPRGCSKPPWR has a protein stability index of 2.62.
Variant TKHKCRQNTKASLKPRGCSKPPWR has a protein stability index of 3.04.
For TKHKCRQPTKASLKPRGCSKPPWR, the protein stability index was 4.04.
With TKHKCRQRTKASLKPRGCSKPPWR the protein stability index was 3.54.
Work on TKHKCRQSTKASLKPRGCSKPPWR yielded a protein stability index of 3.12.
For TKHKCRQTTKASLKPRGCSKPPWR, the protein stability index was 3.22.
Variant TKHKCRQWTKASLKPRGCSKPPWR has a protein stability index of 2.43.
In the case of TKHKCRQYTKASLKPRGCSKPPWR, the protein stability index is reported as 2.35.
TKHKCRQLAKASLKPRGCSKPPWR gave a protein stability index of 2.2.
Work on TKHKCRQLFKASLKPRGCSKPPWR yielded a protein stability index of 4.48.
For TKHKCRQLGKASLKPRGCSKPPWR, the protein stability index was 2.56.
TKHKCRQLHKASLKPRGCSKPPWR showed a protein stability index of 2.47.
With TKHKCRQLIKASLKPRGCSKPPWR the protein stability index was 2.22.
In the case of TKHKCRQLKKASLKPRGCSKPPWR, the protein stability index is reported as 3.57.
In the case of TKHKCRQLLKASLKPRGCSKPPWR, the protein stability index is reported as 2.17.
Variant TKHKCRQLMKASLKPRGCSKPPWR has a protein stability index of 2.48.
With TKHKCRQLNKASLKPRGCSKPPWR the protein stability index was 3.87.
Work on TKHKCRQLPKASLKPRGCSKPPWR yielded a protein stability index of 3.18.
With TKHKCRQLQKASLKPRGCSKPPWR the protein stability index was 3.14.
In the case of TKHKCRQLSKASLKPRGCSKPPWR, the protein stability index is reported as 2.27.
Work on TKHKCRQLVKASLKPRGCSKPPWR yielded a protein stability index of 2.92.
Variant TKHKCRQLWKASLKPRGCSKPPWR has a protein stability index of 2.25.
TKHKCRQLYKASLKPRGCSKPPWR gave a protein stability index of 3.38.
In the case of TKHKCRQLTDASLKPRGCSKPPWR, the protein stability index is reported as 1.94.
Variant TKHKCRQLTEASLKPRGCSKPPWR has a protein stability index of 1.74.
In the case of TKHKCRQLTFASLKPRGCSKPPWR, the protein stability index is reported as 2.58.
TKHKCRQLTHASLKPRGCSKPPWR showed a protein stability index of 2.11.
Variant TKHKCRQLTIASLKPRGCSKPPWR has a protein stability index of 2.73.
With TKHKCRQLTLASLKPRGCSKPPWR the protein stability index was 2.21.
Variant TKHKCRQLTMASLKPRGCSKPPWR has a protein stability index of 2.38.
Work on TKHKCRQLTNASLKPRGCSKPPWR yielded a protein stability index of 2.8.
Work on TKHKCRQLTPASLKPRGCSKPPWR yielded a protein stability index of 2.71.
TKHKCRQLTQASLKPRGCSKPPWR gave a protein stability index of 2.77.
In the case of TKHKCRQLTRASLKPRGCSKPPWR, the protein stability index is reported as 3.59.
For TKHKCRQLTSASLKPRGCSKPPWR, the protein stability index was 3.07.
Variant TKHKCRQLTTASLKPRGCSKPPWR has a protein stability index of 3.42.
In the case of TKHKCRQLTWASLKPRGCSKPPWR, the protein stability index is reported as 2.46.
Variant TKHKCRQLTYASLKPRGCSKPPWR has a protein stability index of 2.53.
For TKHKCRQLTKCSLKPRGCSKPPWR, the protein stability index was 2.23.
For TKHKCRQLTKDSLKPRGCSKPPWR, the protein stability index was 2.81.
In the case of TKHKCRQLTKESLKPRGCSKPPWR, the protein stability index is reported as 2.27.
Work on TKHKCRQLTKFSLKPRGCSKPPWR yielded a protein stability index of 1.67.
TKHKCRQLTKGSLKPRGCSKPPWR gave a protein stability index of 3.46.
Work on TKHKCRQLTKHSLKPRGCSKPPWR yielded a protein stability index of 3.04.
TKHKCRQLTKISLKPRGCSKPPWR gave a protein stability index of 2.29.
TKHKCRQLTKKSLKPRGCSKPPWR showed a protein stability index of 2.85.
In the case of TKHKCRQLTKLSLKPRGCSKPPWR, the protein stability index is reported as 2.59.
TKHKCRQLTKMSLKPRGCSKPPWR gave a protein stability index of 1.94.
TKHKCRQLTKNSLKPRGCSKPPWR showed a protein stability index of 2.95.
Work on TKHKCRQLTKPSLKPRGCSKPPWR yielded a protein stability index of 3.89.
In the case of TKHKCRQLTKQSLKPRGCSKPPWR, the protein stability index is reported as 2.16.
With TKHKCRQLTKSSLKPRGCSKPPWR the protein stability index was 2.78.
Variant TKHKCRQLTKTSLKPRGCSKPPWR has a protein stability index of 2.92.
Work on TKHKCRQLTKVSLKPRGCSKPPWR yielded a protein stability index of 2.57.
Variant TKHKCRQLTKWSLKPRGCSKPPWR has a protein stability index of 2.27.
TKHKCRQLTKYSLKPRGCSKPPWR gave a protein stability index of 2.48.
In the case of TKHKCRQLTKAALKPRGCSKPPWR, the protein stability index is reported as 2.98.
Work on TKHKCRQLTKACLKPRGCSKPPWR yielded a protein stability index of 2.41.
TKHKCRQLTKADLKPRGCSKPPWR showed a protein stability index of 2.82.
For TKHKCRQLTKAELKPRGCSKPPWR, the protein stability index was 2.57.
Work on TKHKCRQLTKAFLKPRGCSKPPWR yielded a protein stability index of 2.28.
In the case of TKHKCRQLTKAGLKPRGCSKPPWR, the protein stability index is reported as 3.76.
In the case of TKHKCRQLTKAHLKPRGCSKPPWR, the protein stability index is reported as 2.35.
In the case of TKHKCRQLTKAILKPRGCSKPPWR, the protein stability index is reported as 2.87.
Variant TKHKCRQLTKAKLKPRGCSKPPWR has a protein stability index of 3.81.
With TKHKCRQLTKALLKPRGCSKPPWR the protein stability index was 2.19.
TKHKCRQLTKAMLKPRGCSKPPWR showed a protein stability index of 1.54.
TKHKCRQLTKANLKPRGCSKPPWR gave a protein stability index of 3.19.
Variant TKHKCRQLTKAPLKPRGCSKPPWR has a protein stability index of 3.28.
Work on TKHKCRQLTKAQLKPRGCSKPPWR yielded a protein stability index of 3.25.
In the case of TKHKCRQLTKARLKPRGCSKPPWR, the protein stability index is reported as 3.37.
TKHKCRQLTKATLKPRGCSKPPWR gave a protein stability index of 2.6.
With TKHKCRQLTKAWLKPRGCSKPPWR the protein stability index was 2.09.
In the case of TKHKCRQLTKAYLKPRGCSKPPWR, the protein stability index is reported as 2.06.
